Results on 30 sequences are retold here after the supplement of paper PMC9170038.

This series relates to MS2 coat protein. The series can be described thus: apparent KD of MS2 coat protein; designed switch direction (-1 OFF switch, 1 ON switch): -1; higher = weaker reporter binding. Summed up:
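Designed RNA switches were transcribed on Illumina chips by stalled E. coli RNA polymerase and titrated with SNAP-549-labelled MS2 coat protein from 0.7 or 1.5 nM, doubling to 3 µM. Step length ran from 0.8–1.5 h at the lowest concentration to 10–20 min at the highest. The apparent KD is the median over clusters for each design, from curve-fitted normalised cluster fluorescence.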

Setting [1] is: input ligand: microRNA oligo, concentration not stated.
Where [2] appears, read: Eterna round: R95, input ligand: microRNA oligo, concentration not stated.
Setting [3] is: Eterna round: R95, input ligand: FMN 200 uM.
Setting [4] is: Eterna round: R95, input ligand: none.

Consider “AAGGAUAGAGGAUAUACAUAGAUACAGAUUCAUGUAGAACUACAUGAGGAUCACCCAUGUAGAAGGCUAUCCUA [Mat - Same state - Mayanna Mod - D121] (Eterna round: R96, puzzle: Exclusion 2)”, for which the “apparent KD of MS2 coat protein” value runs as follows: (input ligand: FMN 200 uM) 316 nM; under setting [1], 24.8 nM; (input ligand: none) 33.3 nM.

On to “AAGGAUAGAGGAUAUACAUAGAUACAGAUUCAUGUAGAAUUACAUGAGGAUCACCCAUGUAGAAGGCUAUCCUA [Fiskers Ex 2 - 1] (puzzle: Exclusion 2)”, for which the “apparent KD of MS2 coat protein” value under setting [2] turned out to be 285 nM.

Consider “AAGGAUAGAGGAUAUACAUAGAUACAGAUUCAUGUAGACCUACAUGAGGAUCACCCAUGUAGAAGGCUAUCCUA [Fiskers Ex 2 - 11] (puzzle: Exclusion 2)”, for which the “apparent KD of MS2 coat protein” value under setting [2] was determined as 16 nM.

Take “AAGGGACAUGAGGAUCACCCAUGUGAGGAUAUGCUAUGGAAAAUAAAAAAUAAACAUAGCAGAAGGCAUAAAAA [Mat - Exclusion 1 - Eli mod - D37] (Eterna round: R96, puzzle: Exclusion 1)”: the “apparent KD of MS2 coat protein” value (input ligand: FMN 200 uM) worked out at 89.2 nM, the “apparent KD of MS2 coat protein” value under setting [1] is 65.3 nM and the “apparent KD of MS2 coat protein” value (input ligand: none) stood at 99.2 nM.

Consider “AAGGGUACUUUCGGAACGACAUGAGGAUCACCCAUGUAUACUGAGGAUAUCCACUACUAAGGACGGGAGAAGGCAGUGUAAUGU [Ex NG3 #78] (Eterna round: R96, puzzle: Exclusion NG 3)”, for which the “apparent KD of MS2 coat protein” value (input ligand: FMN 200 uM) came out at 18.8 nM, the “apparent KD of MS2 coat protein” value under setting [1] amounted to 13.6 nM and the “apparent KD of MS2 coat protein” value (input ligand: none) is 18.5 nM.

On to “AAGGGUGCUUUCAGAACGACAUGAGGAUCACCCAUGUAGACUGAGGAUAUCUACUCCUAAGGACGGGAGAAGGUAGUGUAAUGC [Ex NG3 #66] (Eterna round: R96, puzzle: Exclusion NG 3)”, for which the “apparent KD of MS2 coat protein” value turned out to be 22.8 nM (input ligand: FMN 200 uM), 17.7 nM under setting [1] and 26.1 nM (input ligand: none).

For “AAGGUGGCAGGAUAUACAUGAGGAUCACCCAUGUGAACGUAAGGAGACUCUCUCAAAGGUAGAAGGGUCGGUUC [Eternabot (L2) Solution 1] (Eterna round: R97, puzzle: Exclusion 3)”, the “apparent KD of MS2 coat protein” value amounted to 56.3 nM (input ligand: FMN 200 uM) and 121 nM (input ligand: none).

On to “AAGUACCGGUGAGGAUAUUUUUAAUAGAACUUUAUGAUAUACAUGAGGAUCACCCAUGUUACUUUAAAGAAGGCAUCGGAUUAA [Mat - Exclusion NG 2 - Mod of JL - D86] (Eterna round: R96, puzzle: Exclusion NG 2)”, for which the “apparent KD of MS2 coat protein” value under setting [1] worked out at 12.5 nM.

For the sequence “AAGUACCGGUGAGGAUAUUUUUAAUAGAGCUUUAUGAUAUACAUGAGGAUCACCCAUGUUACGUUAAAGAAGGCAUCGGAUUAA [Mat - Exclusion NG 2 - Mod of JL - D97] (Eterna round: R96, puzzle: Exclusion NG 2)”, the “apparent KD of MS2 coat protein” value came out at 16.1 nM (input ligand: FMN 200 uM), 13.7 nM under setting [1] and 19.3 nM (input ligand: none).

For the sequence “AAGUACCGUCACGAUAGUGAUGGUACAACAAGCAUGUAAACAUGAGGAUCACCCAUGUCCUCAAAUGCUCGUCUUAU [Sensor 3 - 65] (puzzle: Sensor v3, turn-off variant 2)”, the “apparent KD of MS2 coat protein” value is, setting by setting: under setting [3], 556 nM; under setting [2], 1090 nM; under setting [4], 689 nM.

As for “AAGUACCGUCACGAUAGUGAUGGUACAACAAGCAUGUAAACAUGAGGAUCACCCAUGUCCUCAUAUGCUCGUCUUAU [Sensor 3 - 64] (puzzle: Sensor v3, turn-off variant 2)”, the “apparent KD of MS2 coat protein” value is, setting by setting: under setting [3], 375 nM; under setting [2], 34.3 nM; under setting [4], 566 nM.

With “AAGUACCGUCACGAUAGUGAUGGUACAACAAGCAUGUAAACAUGAGGAUCACCCAUGUCCUCGAAUGCUCGUCUUAU [Sensor 3 - 66] (puzzle: Sensor v3, turn-off variant 2)”, the “apparent KD of MS2 coat protein” value was determined as 554 nM under setting [3], 772 nM under setting [2] and 519 nM under setting [4].

Turning to “AAGUACCGUCACGAUAGUGAUGGUACAACAAGCGAAUGUACAUGAGGAUCACCCAUGUCCUCUUUUGCUCGUCUUAU [Sensor 3 - 97] (puzzle: Sensor v3, turn-off variant 2)”, the “apparent KD of MS2 coat protein” value by setting is: under setting [3], 130 nM; under setting [2], 31.9 nM; under setting [4], 155 nM.

On to “AAGUACCGUCACGAUAGUGAUGGUACAACAAGUAGUGAAACAUGAGGAUCACCCAUGUCCUCAAUUGCUCGUCUUAU [Sensor 3 - 81] (puzzle: Sensor v3, turn-off variant 2)”, for which the “apparent KD of MS2 coat protein” value stood at 776 nM under setting [3], 264 nM under setting [2] and 1020 nM under setting [4].

Turning to “AAGUACCGUCACGAUAGUGAUGGUACAACAAGUAGUGAAACAUGAGGAUCACCCAUGUCCUCAGUUGCUCGUCUUAU [Sensor 3 - 86] (puzzle: Sensor v3, turn-off variant 2)”, the “apparent KD of MS2 coat protein” value is 283 nM under setting [3], 269 nM under setting [2] and 298 nM under setting [4].

With “AAGUACCGUCACGAUAGUGAUGGUACAACAAGUAGUGAAACAUGAGGAUCACCCAUGUCCUCAUUUGCUCGUCUUAU [Sensor 3 - 87] (puzzle: Sensor v3, turn-off variant 2)”, the “apparent KD of MS2 coat protein” value under setting [3] was 1030 nM, the “apparent KD of MS2 coat protein” value under setting [2] worked out at 365 nM and the “apparent KD of MS2 coat protein” value under setting [4] turned out to be 806 nM.

On to “AAGUACCGUCACGAUAGUGAUGGUACAACAGGUAAAUGUACAUGAGGAUCACCCAUGUCCUCUUUUGCUCGUCUUAU [Sensor 3 - 93] (puzzle: Sensor v3, turn-off variant 2)”, for which the “apparent KD of MS2 coat protein” value under setting [3] came out at 147 nM, the “apparent KD of MS2 coat protein” value under setting [2] stood at 36.2 nM and the “apparent KD of MS2 coat protein” value under setting [4] amounted to 160 nM.

Take “AAGUACCGUCACGAUAGUGAUGGUACAGCAAGCAGUGAAACAUGAGGAUCACCCAUGUCCUCAAUUGCUCGUCUUAU [Sensor 3 - 78] (puzzle: Sensor v3, turn-off variant 2)”: the “apparent KD of MS2 coat protein” value reads like this: under setting [3], 43.3 nM; under setting [2], 211 nM; under setting [4], 44.5 nM.

As to “AAGUACCGUCACGAUAGUGAUGGUACAGCAAGUAGUGAAACAUGAGGAUCACCCAUGUCCUCAAUUGCUCGUCUUAU [Sensor 3 - 82] (puzzle: Sensor v3, turn-off variant 2)”, the “apparent KD of MS2 coat protein” value came out at 110 nM under setting [3], 171 nM under setting [2] and 115 nM under setting [4].

Regarding “AAGUACUACAAGCUUAGGGACAUGAGGAUCACCCAUGUUCGUCUUAUUGAUCUAGGUACGCUGACGUACCUAGAUCA [Mat - Sensor v3 - turn-off var 1 - JL Mod - D10] (puzzle: Sensor v3, turn-off variant 1)”, the “apparent KD of MS2 coat protein” value by setting is: under setting [3], 16.2 nM; under setting [2], 44.5 nM; under setting [4], 15.5 nM.

“AAGUAGUGUGUGAGGAUAUUGGUGGAAUGACAUAUUAAGAAGGCACAUGAGGAUCACCCAUGUGGGUUGACACG [Brourd's EX4 #19] (Eterna round: R97, puzzle: Brourd's mod of Exclusion 4)”: the “apparent KD of MS2 coat protein” value by setting is: (input ligand: FMN 200 uM) 269 nM; (input ligand: none) 98.4 nM.

Turning to “AAGUAUAGAGGAUAUAGUAGUUACAACAUGAGGAUCACCCAUGUUCUUCAUAACGUAGUUCUAGAAGGCUGAUAAA [EX-5 Malc#28] (puzzle: Exclusion 5)”, under setting [2], the “apparent KD of MS2 coat protein” value worked out at 172 nM.

On to “AAGUCCAGAGGAUAUCAGACGCGGCACAUGAGGAUCACCCAUGUAUUCCCGUCUGCCGACUGAGAAGGUUGGAAAG [Vesoarusqu] (puzzle: Exclusion 5)”, for which the “apparent KD of MS2 coat protein” value under setting [2] was determined as 11.1 nM.

With “AAGUCGACGGUGAGGAUAUAGGUUGAACGACAGAUCUAGAAGGUACAUGAGGAUCACCCAUGUGGGUAACGUCG [Brourd's EX4 #36] (Eterna round: R97, puzzle: Brourd's mod of Exclusion 4)”, the “apparent KD of MS2 coat protein” value reads like this: (input ligand: FMN 200 uM) 54.8 nM; (input ligand: none) 98.2 nM.

With “AAGUCGACGGUGAGGAUAUUGGUUGAACGACAGAUUAAGAAGGUACAUGAGGAUCACCCAUGUGGGUAACGUUG [Brourd's EX4 #76] (Eterna round: R97, puzzle: Brourd's mod of Exclusion 4)”, the “apparent KD of MS2 coat protein” value by setting is: (input ligand: FMN 200 uM) 108 nM; (input ligand: none) 86.2 nM.

Turning to “AAGUCGAGCGUGAGGAUAUCGUCCGGACGACCCAACGAGAAGGCACAUGAGGAUCACCCAUGUGAUUCAGCUCA [Brourd's EX4 #50] (Eterna round: R97, puzzle: Brourd's mod of Exclusion 4)”, the “apparent KD of MS2 coat protein” value is, setting by setting: (input ligand: FMN 200 uM) 20.3 nM; (input ligand: none) 18.7 nM.

For the sequence “AAGUCGGCAGGAUAUACAUGAGGAUCACCCAUGUAAAUUUUUCGUUUAACUUGAAUGUGUAGAAGGGCCAUGAA [Ex3 #67] (Eterna round: R97, puzzle: Exclusion 3)”, the “apparent KD of MS2 coat protein” value by setting is: (input ligand: FMN 200 uM) 25.8 nM; (input ligand: none) 27.2 nM.

As for “AAGUUCAGAGGAUAUGCCCAGCUCGACAUGAGGAUCACCCAUGUAUCCACAGAACGUACGGCAGAAGGCUGCAAUA [Eternabot (Original) Solution 9] (Eterna round: R97, puzzle: Exclusion 5)”, the “apparent KD of MS2 coat protein” value (input ligand: FMN 200 uM) was determined as 69.4 nM and the “apparent KD of MS2 coat protein” value (input ligand: none) worked out at 86 nM.

As for “AAGUUGAAAGUCAGGAUAUCCAGACAAAAGUCAACGGAGAAGGGACUUGAGGAUCACCCAAGUGACCCUAAAUG [Usraleribe] (Eterna round: R97, puzzle: Brourd's mod of Exclusion 4)”, the “apparent KD of MS2 coat protein” value was 23.9 nM (input ligand: FMN 200 uM) and 14.8 nM (input ligand: none).

As to “AAUAACAAGUAAGAUCCUAACAUGAGGAUCACCCAUGUGCUCGUCUUGUAAAGUACUAUCACGAAAGUGAUAGUACA [Sensor 3, v1 - 51] (puzzle: Sensor v3, turn-off variant 1)”, the “apparent KD of MS2 coat protein” value was found to be 48.3 nM under setting [3], 295 nM under setting [2] and 54.7 nM under setting [4].
